What is called Kd is the free concentration of one partner at which half of the binding sites on the other are occupied at equilibrium, for simple one-to-one binding. Low values mean tighter binding, high ones weaker binding.

First the molecules themselves.
B3: RVFV glycoprotein Gn head domain (154–469 aa) (domain or fragment)
chain: EDPHLRNRPGKGHNYIDGMTQEDATCKPVTYAGACSSFDVLLEKGKFPLFQSYAHHRTLLEAVHDTIIAKADPPSCDLLSAHGNPCMKEKLVMKTHCPNDYQSAHHLNNDGKMASVKCPPKYELTEDCNFCRQMTGASLKKGSYPLQDLFCQSSEDDGSKLKTKMKGVCEVGVQALKKCDGQLSTAHEVVPFAVFKNSKKVYLDKLDLKTEENLLPDSFVCFEHKGQYKGTMDSGQTKRELKSFDISQCPKIGGHGSKKCTGDAAFCSAYECTAQYANAYCSHANGSGIVQIQVSGVWKKPLCVGYERVVVKRELS

Holding throughout (conditions): both partners purified
The target in experiment [1] is B3. Put plainly: BLI; […]; 300 s association, 300 s dissociation; […], global 1:1 model; Octet RED96. (In general: Biolayer interferometry detects binding as a change in optical thickness at a sensor tip.)
Experiment [2] has as its target T1, LRP1 cluster II (CL II, 786–1165 aa) (human, UniProt Q07954 786-1165).
T1 construct: not shown: FLAG or 6 × HIS (same vector as Gn)
T1 sequence: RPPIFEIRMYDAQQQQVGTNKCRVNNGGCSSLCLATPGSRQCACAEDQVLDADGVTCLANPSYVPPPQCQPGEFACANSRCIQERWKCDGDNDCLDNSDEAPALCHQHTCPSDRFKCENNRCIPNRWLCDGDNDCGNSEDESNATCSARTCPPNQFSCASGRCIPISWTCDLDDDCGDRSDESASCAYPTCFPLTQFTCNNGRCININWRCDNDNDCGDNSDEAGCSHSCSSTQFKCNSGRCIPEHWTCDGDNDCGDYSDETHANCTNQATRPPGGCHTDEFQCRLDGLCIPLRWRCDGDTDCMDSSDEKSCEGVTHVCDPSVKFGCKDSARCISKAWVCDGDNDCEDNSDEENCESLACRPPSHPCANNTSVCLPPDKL
In words: BLI.

Experiment [3] concerns the target T2, LRP1 cluster IV (CL IV, 3332–3779 aa) (human, UniProt Q07954 3332-3779). In words: BLI.
The target in experiment [4] is T1, LRP1 cluster II (CL II, 786–1165 aa). In words: BLI; […]; 300 s association, 300 s dissociation; […], global 1:1 model; Octet RED96.
Experiment [5] has as its target T2, LRP1 cluster IV (CL IV, 3332–3779 aa). The experiment is described as above.

T2 sequence (Q07954 3332-3779): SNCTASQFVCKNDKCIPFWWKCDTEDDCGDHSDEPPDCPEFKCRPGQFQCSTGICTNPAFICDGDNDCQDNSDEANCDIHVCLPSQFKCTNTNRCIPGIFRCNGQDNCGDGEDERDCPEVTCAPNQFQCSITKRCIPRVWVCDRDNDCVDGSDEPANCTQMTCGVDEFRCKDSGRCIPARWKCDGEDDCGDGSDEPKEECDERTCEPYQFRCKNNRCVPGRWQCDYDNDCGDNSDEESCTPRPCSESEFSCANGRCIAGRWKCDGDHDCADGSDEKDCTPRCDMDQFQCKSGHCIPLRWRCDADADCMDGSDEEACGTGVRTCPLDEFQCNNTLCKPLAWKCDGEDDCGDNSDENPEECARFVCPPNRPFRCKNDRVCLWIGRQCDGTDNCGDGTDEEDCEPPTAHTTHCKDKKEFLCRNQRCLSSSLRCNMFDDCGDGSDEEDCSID

B1: LRP1 CL IV-A, repeats A21–A24 (3332–3491 aa) (domain or fragment)
chain: not shown
The molecule B1 had an equilibrium dissociation constant (Kd) in experiment [1] of 72 nM.

B2: LRP1 CL IV-B, repeats A25–A28 (3492–3649 aa) (domain or fragment)
chain: not shown
B2 returned a Kd in experiment [1] of 36 nM.

Turning to B3, the Kd in experiment [2] is 220 nM; in experiment [3], 120 nM; in experiment [4], 89 nM; in experiment [5], 56 nM.
